# Measured values: the supplement of paper PMC10724198
# ± gives the standard deviation of the averaged measurements.
# System: Saccharomyces cerevisiae
# Assay: protein stability index of tFT-peptide fusion (C-terminal peptide) (PSI (0-1 scale)); higher = more stable (slower turnover)
# Details: genetic background: wild type; temperature: 30 C
# Method: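 Multiplexed protein stability (MPS) profiling in S. cerevisiae. Random 12-aa peptides (tFT-X12 library) are fused to the C-terminus of a sfGFP-mCherry tandem fluorescent timer, after mCherry and a GGGS linker. Cells are FACS-sorted into 8 mCherry/sfGFP bins and deep-sequenced. The protein stability index (PSI) is the read-weighted bin average, scaled from 0 (unstable) to 1 (stable). Only peptides with >10 reads are reported; cells were grown at 30 °C in SC-His with glucose.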
# 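Also: PSI is a weighted mean of sequencing reads over stability bins, variants kept only with over 10 reads, mCherry proximal and sfGFP distal, peptide attached via GGGS linker.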
row,Sequence,protein stability index
1,EGDGLGGGGQGG,0.685 ± 0.0069
2,EGDQSRMTQPRG,0.647 ± 0.034
3,EGGARGCGEGSQ,0.656 ± 0.015
4,EGGEWGSFGSAV,0.704 ± 0.0094
5,EGGGGGGAPRVR,0.752 ± 0.093
6,EGGGGGPGDARR,0.663 ± 0.025
7,EGLSYSFGDCPM,0.754 ± 0.03
8,EGRAAETFVCAI,0.6429 ± 0.0055
9,EGRSVWVVGRAV,0.652 ± 0.045
10,EGSPIVNSLALD,0.668 ± 0.017
11,EGVCEIEMRGSR,0.788 ± 0.021
12,EGVGGGRWCGRG,0.666 ± 0.055
13,EGVGRGCSGGCW,0.713 ± 0.055
14,EGYRDMAFKLCK,0.697 ± 0.0093
15,EHLYIYGKDKWK,0.602 ± 0.025
16,EHMEYKSMVSCA,0.51 ± 0.059
17,EHRPCQGVMYII,0.522 ± 0.0026
18,EIDMLVVRNLKH,0.664 ± 0.044
19,EIKGTQRKGGKR,0.726 ± 0.055
20,EINIMKIIYRKI,0.666 ± 0.044
21,EIPGPLALSPAG,0.736 ± 0.015
22,EKCCGAAVMARC,0.561 ± 0.015
23,EKIRSARKKTIH,0.735 ± 0.0082
24,EKKEKTPKPKPR,0.685 ± 0.025
25,EKKKKKKKKKKK,0.7721 ± 0.003

row,Sequence,protein stability index
1,EKKKNKTKKKTN,0.688 ± 0.056
2,EKKKTKKKTIKK,0.636 ± 0.03
3,EKQKGIVQADKI,0.665 ± 0.046
4,EKVRICKWKGGI,0.616 ± 0.061
5,EKWMRYLARCDI,0.6882 ± 0.0012
6,EKYELHEVEKEI,0.597 ± 0.049
7,ELHEETEKSKYR,0.74 ± 0.11
8,ELLTVQLHKAAR,0.706 ± 0.0076
9,ELRLYFPRLFQF,0.496 ± 0.0078
10,ELSLSCPPLETP,0.768 ± 0.034
11,ELSRLLPASFSL,0.696 ± 0.032
12,ELVGGEGIGGGL,0.581 ± 0.024
13,EMCRCVEGREEG,0.6704 ± 0.0036
14,ENKKKKKNIEKK,0.702 ± 0.04
15,ENRNKSYEISRP,0.7015 ± 0.0052
16,EPGLIPVAGTFF,0.76 ± 0.011
17,EPNEKEKNKEVK,0.704 ± 0.0079
18,EPPLPEPPLSRS,0.705 ± 0.023
19,EQDDGARMIRRV,0.683 ± 0.027
20,EQDLSTKVKRST,0.65 ± 0.12
21,ERGAEGKKEPEK,0.6534 ± 0.0061
22,ERGGGRRRLSNA,0.656 ± 0.062
23,ERGRKGGAGARD,0.6439 ± 0.0047
24,ERINFSRRDFDC,0.805 ± 0.059
25,ERKNRKIRREKK,0.774 ± 0.16

row,Sequence,protein stability index
1,ERLLLGLNRRLG,0.643 ± 0.055
2,ERLLMLSGLRRA,0.779 ± 0.1
3,ERLRLVPRKGLL,0.714 ± 0.048
4,ERLRSDSLSYDI,0.714 ± 0.052
5,ERSWQEKGVVRG,0.699 ± 0.06
6,ERVGLISSRRGC,0.696 ± 0.014
7,ERYRDVPVTSNR,0.724 ± 0.013
8,ESALPFLYSLSG,0.703 ± 0.021
9,ESEGSGVGACGG,0.681 ± 0.02
10,ESGPQWLGTFVT,0.733 ± 0.0094
11,ESGTVINKNSNK,0.6661 ± 0.0054
12,ESQGYGSQAKLA,0.694 ± 0.028
13,ESVPPILGQDPL,0.773 ± 0.035
14,ETGMSHHINRIW,0.752 ± 0.054
15,ETKKEETKRWRR,0.6789 ± 0.0025
16,ETVFESFEVKCG,0.68 ± 0.022
17,ETVRPYSPMRPG,0.674 ± 0.016
18,EVCLTLTTADGH,0.68826 ± 0.00011
19,EVEKKKKKKNNK,0.663 ± 0.04
20,EVGTSGTWPGSV,0.714 ± 0.013
21,EVLLVHWINPNA,0.687 ± 0.047
22,EVMGGANDCGVV,0.689 ± 0.012
23,EVRLGKDKANRI,0.691 ± 0.067
24,EVRSDSFFKCEG,0.6606 ± 0.0046
25,EVRTRSSRIHRI,0.709 ± 0.082

row,Sequence,protein stability index
1,EVYAGGESDVMS,0.637 ± 0.029
2,EWCGSLVVWTGG,0.668 ± 0.018
3,EWGKCGRGLYGC,0.666 ± 0.033
4,EWPVGLLREGLG,0.6177 ± 0.0016
5,EWVKFCFPIVQS,0.651 ± 0.048
6,EYKIKSIERRKK,0.73 ± 0.04
7,EYQGARAAGQSL,0.678 ± 0.02
8,FACVLVLFPFFL,0.641 ± 0.099
9,FAFWGGHSWLSC,0.791 ± 0.035
10,FAGNRDQEEERK,0.706 ± 0.022
11,FALPSASHFPVP,0.7289 ± 0.0046
12,FAPRRDPMQVQY,0.6744 ± 0.0032
13,FASIESVENIEM,0.709 ± 0.07
14,FAVLGGGVGGGG,0.683 ± 0.043
15,FCCVAPLALPRM,0.686 ± 0.013
16,FCFLAFLKTPKS,0.58 ± 0.038
17,FCPEGGYSVFYL,0.719 ± 0.019
18,FCPPMPSVIALH,0.649 ± 0.024
19,FCRFCEFIFIFL,0.499 ± 0.056
20,FCSCLCGGEFVR,0.69 ± 0.03
21,FCSPPTLPPSPS,0.732 ± 0.024
22,FCVFVGSSLVGF,0.659 ± 0.019
23,FCVQRWWGEGGH,0.6176 ± 0.0017
24,FDFISHLYWSIV,0.582 ± 0.011
25,FDLPPCVPRARP,0.767 ± 0.099

row,Sequence,protein stability index
1,FDLTFPPPPLPF,0.719 ± 0.052
2,FDPTGPIGMRPT,0.653 ± 0.0017
3,FDVLGPRVVSWV,0.633 ± 0.093
4,FEAVDSLFMLVL,0.686 ± 0.034
5,FEFGGGIRGSLG,0.679 ± 0.048
6,FEIVARTYNVDT,0.666 ± 0.023
7,FESRGEPPDIQV,0.668 ± 0.049
8,FESTIKNINNSI,0.714 ± 0.011
9,FFAFLLRSPSTS,0.711 ± 0.064
10,FFFFPLLSVPDR,0.6101 ± 0.0026
11,FFFGFFSVLSLG,0.606 ± 0.089
12,FFFPGLLVPLFP,0.727 ± 0.025
13,FFLPPPPPPPPL,0.677 ± 0.015
14,FFLPTLQLTPYL,0.795 ± 0.19
15,FFMPRCCSLALE,0.644 ± 0.047
16,FFSHSAPAPFPL,0.692 ± 0.017
17,FFVFFPLGGFWL,0.668 ± 0.085
18,FFVGFASLRLVL,0.5517 ± 0.0046
19,FFVVAPSPSPRL,0.761 ± 0.0073
20,FFYYPSFLPSPL,0.685 ± 0.011
21,FGFIEGKRLGIT,0.62 ± 0.041
22,FGFRLFLPSFSA,0.6433 ± 0.0029
23,FGGGGGGGLLWC,0.739 ± 0.071
24,FGGLLFTRFGWE,0.802 ± 0.056
25,FGLARGMFFLTV,0.629 ± 0.056

row,Sequence,protein stability index
1,FGLCRSLESRQF,0.6606 ± 0.0026
2,FGLPPGNWSSGH,0.782 ± 0.028
3,FGNVLISMRNRL,0.834 ± 0.11
4,FGPLFSEDTRKV,0.703 ± 0.076
5,FGRFVLSCFDRK,0.661 ± 0.019
6,FGRGGGGFLTLV,0.647 ± 0.0034
7,FGSCVVVRRVGF,0.619 ± 0.056
8,FGVHCSSPTSGG,0.6684 ± 0.0013
9,FGVTRSPLDPLF,0.665 ± 0.043
10,FGWEGGEEMAGG,0.788 ± 0.0097
11,FHGGRGLLLGMN,0.649 ± 0.077
12,FIPPPLALPFYS,0.674 ± 0.056
13,FKCWAGVRCGMV,0.611 ± 0.013
14,FKLVPCLGPSHF,0.741 ± 0.047
15,FLAGGRFLCIVV,0.593 ± 0.098
16,FLCPGELSYFCV,0.666 ± 0.03
17,FLFRSFACALPS,0.522 ± 0.0081
18,FLFSYIEGSPNP,0.721 ± 0.073
19,FLFWFLFFCSSR,0.49 ± 0.022
20,FLGGVGGLVLIG,0.6672 ± 0.0047
21,FLHPLTPSPPLA,0.711 ± 0.096
22,FLHPSPIPPPLP,0.7092 ± 0.0012
23,FLLKKVLCINWQ,0.545 ± 0.0028
24,FLLLSAGERCWD,0.694 ± 0.085
25,FLLPLKCRSTTN,0.712 ± 0.046

row,Sequence,protein stability index
1,FLLPPASLSLPP,0.7074 ± 0.0034
2,FLPFRPFPPFSA,0.621 ± 0.0064
3,FLPPSRFSPLRL,0.708 ± 0.11
4,FLSEFFMPSPFP,0.745 ± 0.097
5,FLSFIALLPFTS,0.6748 ± 0.0021
6,FMACGVNIELRV,0.643 ± 0.0088
7,FNCCSYTSPASG,0.649 ± 0.015
8,FNEKNKKSTLER,0.652 ± 0.043
9,FNIRDKVKRGAL,0.666 ± 0.008
10,FNTRDTFLYTCR,0.789 ± 0.11
11,FPALPPPLPQPP,0.585 ± 0.031
12,FPCAPFLLLDVS,0.663 ± 0.0029
13,FPDPTPNLRPPP,0.636 ± 0.034
14,FPFFLPMASLFC,0.559 ± 0.018
15,FPFWRLYNLELL,0.492 ± 0.022
16,FPGLFLFVLLPG,0.505 ± 0.013
17,FPGVGARAGVGV,0.697 ± 0.027
18,FPHPPPGPRALH,0.691 ± 0.16
19,FPLSLCPHRPSL,0.716 ± 0.034
20,FPMHFRVRCRPV,0.62 ± 0.045
21,FPPPLPPRLPPP,0.702 ± 0.0061
22,FPPPPPPLTVLP,0.728 ± 0.054
23,FPPPPTHPASSP,0.691 ± 0.027
24,FPRHPPPFPRPT,0.681 ± 0.031
25,FPVLFSCGYFPL,0.792 ± 0.04

row,Sequence,protein stability index
1,FPWISPCCFTFP,0.64 ± 0.042
2,FPYLLCPLFPWP,0.665 ± 0.015
3,FQGKRTKQEGVK,0.692 ± 0.071
4,FRASLPRVPFSS,0.695 ± 0.11
5,FRDVRFSSRVPF,0.786 ± 0.07
6,FRGATRPHSGRS,0.676 ± 0.048
7,FRIFGFLVCPIM,0.6257 ± 0.0038
8,FRLLFSFFWGYV,0.595 ± 0.033
9,FRLLLLKIKSEQ,0.619 ± 0.034
10,FRMLSRMKEILD,0.634 ± 0.052
11,FRRARRLRWFGG,0.637 ± 0.03
12,FRRLVTGVLSIF,0.559 ± 0.028
13,FRRWHPPFFLFP,0.713 ± 0.04
14,FRWLLVAGGWGE,0.486 ± 0.024
15,FRYRLACRPIYQ,0.616 ± 0.038
16,FSAFWLACFFGV,0.717 ± 0.062
17,FSEKLLRSSVYR,0.639 ± 0.19
18,FSFNGMTRNCLR,0.715 ± 0.014
19,FSGGCSVHGLIS,0.612 ± 0.071
20,FSGSSFNGLCSF,0.701 ± 0.018
21,FSLHTSLLPSVP,0.787 ± 0.14
